{
  "source": "patent US20140141456",
  "proteins": {"B1": {"name": "PAPP-A2 (recombinant, in medium from 293T cells transfected with cDNA encoding PAPP-A2, pPA2; also purified PAPP-A2) (protein)", "chain": "SPPEESNQNGGEGSYREAETFNSQVGLPILYFSGRRERLLLRPEVLAEIPREAFTVEAWVKPEGGQNNPAIIAGVFDNCSHTVSDKGWALGIRSGKDKGKRDARFFFSLCTDRVKKATILISHSRYQPGTWTHVAATYDGRHMALYVDGTQVASSLDQSGPLNSPFMASCRSLLLGGDSSEDGHYFRGHLGTLVFWSTALPQSHFQHSSQHSSGEEEATDLVLTASFEPVNTEWVPFRDEKYPRLEVLQGFEPEPEILSPLQPPLCGQTVCDNVELISQYNGYWPLRGEKVIRYQVVNICDDEGLNPIVSEEQIRLQHEALNEAFSRYNISWQLSVHQVHNSTLRHRVVLVNCEPSKIGNDHCDPECEHPLTGYDGGDCRLQGRCYSWNRRDGLCHVECNNMLNDFDDGDCCDPQVADVRKTCFDPDSPKRAYMSVKELKEALQLNSTHFLNIYFASSVREDLAGAATWPWDKDAVTHLGGIVLSPAYYGMPGHTDTMIHEVGHVLGLYHVFKGVSERESCNDPCKETVPSMETGDLCADTAPTPKSELCREPEPTSDTCGFTRFPGAPFTNYMSYTDDNCTDNFTPNQVARMHCYLDLVYQQWTESRKPTPIPIPPMVIGQTNKSLTIHWLPPISGVVYDRASGSLCGACTEDGTFRQYVHTASSRRVCDSSGYWTPEEAVGPPDVDQPCEPSLQAWSPEVHLYHMNMTVPCPTEGCSLELLFQHPVQADTLTLWVTSFFMESSQVLFDTEILLENKESVHLGPLDTFCDIPLTIKLHVDGKVSGVKVYTFDERIEIDAALLTSQPHSPLCSGCRPVRYQVLRDPPFASGLPVVVTHSHRKFTDVEVTPGQMYQYQVLAEAGGELGEASPPLNHIHGAPYCGDGKVSERLGEECDDGDLVSGDGCSKVCELEEGFNCVGEPSLCYMYEGDGICEPFERKTSIVDCGIYTPKGYLDQWATRAYSSHEDKKKCPVSLVTGEPHSLICTSYHPDLPNHRPLTGWFPCVASENETQDDRSEQPEGSLKKEDEVWLKVCFNRPGEARAIFIFLTTDGLVPGEHQQPTVTLYLTDVRGSNHSLGTYGLSCQHNPLIINVTHHQNVLFHHTTSVLLNFSSPRVGISAVALRTSSRIGLSAPSNCISEDEGQNHQGQSCIHRPCGKQDSCPSLLLDHADVVNCTSIGPGLMKCAITCQRGFALQASSGQYIRPMQKEILLTCSSGHWDQNVSCLPVDCGVPDPSLVNYANFSCSEGTKFLKRCSISCVPPAKLQGLSPWLTCLEDGLWSLPEVYCKLECDAPPIILNANLLLPHCLQDNHDVGTICKYECKPGYYVAESAEGKVRNKLLKIQCLEGGIWEQGSCIPVVCEPPPPVFEGMYECTNGFSLDSQCVLNCNQEREKLPILCTKEGLWTQEFKLCENLQGECPPPPSELNSVEYKCEQGYGIGAVCSPLCVIPPSDPVMLPENITADTLEHWMEPVKVQSIVCTGRRQWHPDPVLVHCIQSCEPFQADGWCDTINNRAYCHYDGGDCCSSTLSSKKVIPFAADCDLDECTCRDPKAEENQ"}},
  "key": {"[1]": {"biological_target": "C-terminally c-myc tagged rIGFBP-5 (human IGFBP-5 with myc epitope and His6, expressed in mammalian cells), P24593", "sequence (P24593 other isoform, or with tags, fused parts or gaps)": "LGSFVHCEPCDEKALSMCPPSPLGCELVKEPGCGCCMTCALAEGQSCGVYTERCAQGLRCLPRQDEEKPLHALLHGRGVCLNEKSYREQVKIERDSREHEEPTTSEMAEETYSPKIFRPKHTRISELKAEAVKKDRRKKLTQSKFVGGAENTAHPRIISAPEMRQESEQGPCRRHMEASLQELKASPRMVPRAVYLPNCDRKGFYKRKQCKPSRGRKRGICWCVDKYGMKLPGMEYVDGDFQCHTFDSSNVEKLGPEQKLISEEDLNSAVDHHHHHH"}, "[2]": {"biological_target": "rIGFBP-3 (gift of D. Powell), P17936", "sequence (P17936 28-291)": "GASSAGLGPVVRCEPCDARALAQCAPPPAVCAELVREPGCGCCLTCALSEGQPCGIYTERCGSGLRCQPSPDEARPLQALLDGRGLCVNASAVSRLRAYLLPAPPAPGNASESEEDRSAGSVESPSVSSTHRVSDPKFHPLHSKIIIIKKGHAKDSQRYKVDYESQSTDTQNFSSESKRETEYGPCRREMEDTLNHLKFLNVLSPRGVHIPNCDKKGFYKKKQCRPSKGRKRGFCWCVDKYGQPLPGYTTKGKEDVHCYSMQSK"}, "[3]": {"biological_target": "rIGFBP-5 (gift of D. Andress), P24593", "sequence (P24593 21-272)": "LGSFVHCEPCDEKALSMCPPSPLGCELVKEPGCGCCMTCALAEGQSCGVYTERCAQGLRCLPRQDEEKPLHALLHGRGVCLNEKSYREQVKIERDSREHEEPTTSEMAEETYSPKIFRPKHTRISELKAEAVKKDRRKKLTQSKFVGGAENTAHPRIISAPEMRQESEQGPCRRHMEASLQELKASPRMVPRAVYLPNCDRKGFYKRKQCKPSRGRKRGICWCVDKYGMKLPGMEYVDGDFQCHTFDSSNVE"}},
  "data": [
    {"protein": "B1", "values": [
      {"measurement": "Proteolytic activity was assessed by Western blotting using anti-c-myc", "setting": "[1]", "value": "In the absence of inhibitors, wild-type PAPP-A2 degraded all rIGFBP-5 (lane 3)"},
      {"measurement": "activity assessed by ligand blotting using radiolabeled IGF-II", "setting": "[2]", "value": "IGFBP-3 was partially degraded"},
      {"measurement": "activity assessed by ligand blotting using radiolabeled IGF-II", "setting": "[3]", "value": "IGFBP-5 showed complete cleavage"}
    ]}
  ]
}
